Test results reported in US20250161408A1, “PEPTIDIC INHIBITORS OF AMYLOID SELF- AND CROSS-ASSEMBLY” (TECHNISCHE UNIVERSITÄT MÜNCHEN, priority 2022, published 2025).
Non-standard residues stand in square brackets, D forms with d. NMeF = CN[C@@H](Cc1ccccc1)C(=O)O; NMeL = CN[C@@H](CC(C)C)C(=O)O; NMeV = CN[C@H](C(=O)O)C(C)C; Nle = CCCC[C@H](N)C(=O)O

B1: Nle3-LF (peptide)
peptide: H-QK[NMeL]V[NMeF]FAED[Nle][Nle][Nle]NKGAIIGL[Nle]VGGVV-OH
SMILES: CCCC[C@H](NC(=O)[C@H](CC(=O)O)NC(=O)[C@H](CCC(=O)O)NC(=O)[C@H](C)NC(=O)[C@H](Cc1ccccc1)NC(=O)[C@H](Cc1ccccc1)N(C)C(=O)[C@@H](NC(=O)[C@H](CC(C)C)N(C)C(=O)[C@H](CCCCN)NC(=O)[C@@H](N)CCC(N)=O)C(C)C)C(=O)N[C@@H](CCCC)C(=O)N[C@@H](CCCC)C(=O)N[C@@H](CC(N)=O)C(=O)N[C@@H](CCCCN)C(=O)NCC(=O)N[C@@H](C)C(=O)N[C@H](C(=O)N[C@H](C(=O)NCC(=O)N[C@@H](CC(C)C)C(=O)N[C@@H](CCCC)C(=O)N[C@H](C(=O)NCC(=O)NCC(=O)N[C@H](C(=O)N[C@H](C(=O)O)C(C)C)C(C)C)C(C)C)[C@@H](C)CC)[C@@H](C)CC
B2: L3-LF (peptide)
peptide: H-QK[NMeL]V[NMeF]FAEDLLLNKGAIIGL[Nle]VGGVV-OH
SMILES: CCCC[C@H](NC(=O)[C@H](CC(C)C)NC(=O)CNC(=O)[C@@H](NC(=O)[C@@H](NC(=O)[C@H](C)NC(=O)CNC(=O)[C@H](CCCCN)NC(=O)[C@H](CC(N)=O)NC(=O)[C@H](CC(C)C)NC(=O)[C@H](CC(C)C)NC(=O)[C@H](CC(C)C)NC(=O)[C@H](CC(=O)O)NC(=O)[C@H](CCC(=O)O)NC(=O)[C@H](C)NC(=O)[C@H](Cc1ccccc1)NC(=O)[C@H](Cc1ccccc1)N(C)C(=O)[C@@H](NC(=O)[C@H](CC(C)C)N(C)C(=O)[C@H](CCCCN)NC(=O)[C@@H](N)CCC(N)=O)C(C)C)[C@@H](C)CC)[C@@H](C)CC)C(=O)N[C@H](C(=O)NCC(=O)NCC(=O)N[C@H](C(=O)N[C@H](C(=O)O)C(C)C)C(C)C)C(C)C
B3: Nle3-VF (peptide)
peptide: H-QKL[NMeV]F[NMeF]AED[Nle][Nle][Nle]NKGAIIGL[Nle]VGGVV-OH
SMILES: CCCC[C@H](NC(=O)[C@H](CC(=O)O)NC(=O)[C@H](CCC(=O)O)NC(=O)[C@H](C)NC(=O)[C@H](Cc1ccccc1)N(C)C(=O)[C@H](Cc1ccccc1)NC(=O)[C@H](C(C)C)N(C)C(=O)[C@H](CC(C)C)NC(=O)[C@H](CCCCN)NC(=O)[C@@H](N)CCC(N)=O)C(=O)N[C@@H](CCCC)C(=O)N[C@@H](CCCC)C(=O)N[C@@H](CC(N)=O)C(=O)N[C@@H](CCCCN)C(=O)NCC(=O)N[C@@H](C)C(=O)N[C@H](C(=O)N[C@H](C(=O)NCC(=O)N[C@@H](CC(C)C)C(=O)N[C@@H](CCCC)C(=O)N[C@H](C(=O)NCC(=O)NCC(=O)N[C@H](C(=O)N[C@H](C(=O)O)C(C)C)C(C)C)C(C)C)[C@@H](C)CC)[C@@H](C)CC
B4: F3-VF (peptide)
peptide: H-QKL[NMeV]F[NMeF]AEDFFFNKGAIIGL[Nle]VGGVV-OH
SMILES: CCCC[C@H](NC(=O)[C@H](CC(C)C)NC(=O)CNC(=O)[C@@H](NC(=O)[C@@H](NC(=O)[C@H](C)NC(=O)CNC(=O)[C@H](CCCCN)NC(=O)[C@H](CC(N)=O)NC(=O)[C@H](Cc1ccccc1)NC(=O)[C@H](Cc1ccccc1)NC(=O)[C@H](Cc1ccccc1)NC(=O)[C@H](CC(=O)O)NC(=O)[C@H](CCC(=O)O)NC(=O)[C@H](C)NC(=O)[C@H](Cc1ccccc1)N(C)C(=O)[C@H](Cc1ccccc1)NC(=O)[C@H](C(C)C)N(C)C(=O)[C@H](CC(C)C)NC(=O)[C@H](CCCCN)NC(=O)[C@@H](N)CCC(N)=O)[C@@H](C)CC)[C@@H](C)CC)C(=O)N[C@H](C(=O)NCC(=O)NCC(=O)N[C@H](C(=O)N[C@H](C(=O)O)C(C)C)C(C)C)C(C)C
B5: L3-VF (peptide)
peptide: H-QKL[NMeV]F[NMeF]AEDLLLNKGAIIGL[Nle]VGGVV-OH
SMILES: CCCC[C@H](NC(=O)[C@H](CC(C)C)NC(=O)CNC(=O)[C@@H](NC(=O)[C@@H](NC(=O)[C@H](C)NC(=O)CNC(=O)[C@H](CCCCN)NC(=O)[C@H](CC(N)=O)NC(=O)[C@H](CC(C)C)NC(=O)[C@H](CC(C)C)NC(=O)[C@H](CC(C)C)NC(=O)[C@H](CC(=O)O)NC(=O)[C@H](CCC(=O)O)NC(=O)[C@H](C)NC(=O)[C@H](Cc1ccccc1)N(C)C(=O)[C@H](Cc1ccccc1)NC(=O)[C@H](C(C)C)N(C)C(=O)[C@H](CC(C)C)NC(=O)[C@H](CCCCN)NC(=O)[C@@H](N)CCC(N)=O)[C@@H](C)CC)[C@@H](C)CC)C(=O)N[C@H](C(=O)NCC(=O)NCC(=O)N[C@H](C(=O)N[C@H](C(=O)O)C(C)C)C(C)C)C(C)C
B6: F3-LF (peptide)
peptide: H-QK[NMeL]V[NMeF]FAEDFFFNKGAIIGL[Nle]VGGVV-OH
SMILES: CCCC[C@H](NC(=O)[C@H](CC(C)C)NC(=O)CNC(=O)[C@@H](NC(=O)[C@@H](NC(=O)[C@H](C)NC(=O)CNC(=O)[C@H](CCCCN)NC(=O)[C@H](CC(N)=O)NC(=O)[C@H](Cc1ccccc1)NC(=O)[C@H](Cc1ccccc1)NC(=O)[C@H](Cc1ccccc1)NC(=O)[C@H](CC(=O)O)NC(=O)[C@H](CCC(=O)O)NC(=O)[C@H](C)NC(=O)[C@H](Cc1ccccc1)NC(=O)[C@H](Cc1ccccc1)N(C)C(=O)[C@@H](NC(=O)[C@H](CC(C)C)N(C)C(=O)[C@H](CCCCN)NC(=O)[C@@H](N)CCC(N)=O)C(C)C)[C@@H](C)CC)[C@@H](C)CC)C(=O)N[C@H](C(=O)NCC(=O)NCC(=O)N[C@H](C(=O)N[C@H](C(=O)O)C(C)C)C(C)C)C(C)C

Assays:
[1] = target: islet amyloid polypeptide (IAPP) (human) (UniProt P10997)
[2] = target: Aβ42 (Homo sapiens (Human)) (UniProt P05067)

Chain of islet amyloid polypeptide (IAPP) (human) (P10997 34-70): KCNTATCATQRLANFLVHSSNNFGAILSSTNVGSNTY

Binder | IC50 of inhibitory effect on IAPP-mediated cell damage (MTT reduction, RIN5fm cells) [1] [µM] | IC50 of inhibitory effect on Aβ42-mediated cell damage (MTT reduction, PC12 cells) [2] [µM]
B1 | 0.0821 | –
B2 | 0.133 | –
B3 | 0.065 | 0.367
B4 | 0.0785 | 1.03
B5 | 0.113 | 0.261
B6 | 0.0417 | 0.262
